This note sets out measurements from patent US20200317776A1 (published 2020).

The target of test [1] is T1, human TREM2 Fc fusion (entire TREM2 ECD; only one Fc arm fused to TREM2) (human, UniProt Q9NZC2 19-174).
T1 construct: also called huTREM2-Fc; recombinant hTREM2
T1 sequence: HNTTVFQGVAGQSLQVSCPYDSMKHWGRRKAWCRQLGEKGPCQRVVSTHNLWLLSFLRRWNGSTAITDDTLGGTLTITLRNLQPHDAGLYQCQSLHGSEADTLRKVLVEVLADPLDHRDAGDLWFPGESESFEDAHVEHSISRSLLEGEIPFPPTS
The test is described as follows: BLI, Fab, monovalent. On the procedure: Briefly, IgG's were loaded on-line onto AHQ sensors. Sensors were equilibrated off-line in assay buffer for 30 minutes and then monitored on-line for 60 seconds for baseline establishment. For avid binding measurement, sensors with loaded IgGs were exposed to 100 nM antigen (human TREM2 Fc fusion using the entire TREM2 ECD; only one Fc arm was fused to TREM2) for 3 minutes, afterwards they were transferred to assay buffer for 3 minutes for off-rate measurement. Monovalent binding measurements were obtained by loading human TREM2 Fe fusion antigens to AHQ sensor and followed by exposure to 100 nM TREM2 antibody Fab. Kinetics data were fit using a 1:1 binding model in the data analysis software provided by ForteBio. Assay was run at room temperature (25° C.).
On the technique in general: In BLI a coated tip is dipped into the sample, and binding shifts an interference pattern.

Test [2] has as its target T2, human TREM2 expressed on cells (human, UniProt Q9NZC2 19-230).
T2 construct: BW5147.G.1.4 cells stably expressing human TREM2 together with Dap12, or endogenous TREM2 of primary human myeloid cells; also called huT2 BW; hTREM2 expressing cell line
T2 sequence: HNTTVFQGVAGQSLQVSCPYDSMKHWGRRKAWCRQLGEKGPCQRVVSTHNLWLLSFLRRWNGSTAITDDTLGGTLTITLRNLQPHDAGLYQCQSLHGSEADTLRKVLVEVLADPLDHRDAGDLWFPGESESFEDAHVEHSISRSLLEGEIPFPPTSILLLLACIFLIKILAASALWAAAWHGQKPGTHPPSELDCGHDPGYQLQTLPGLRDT
The test is described as follows: FACS, hTREM2 BW cells. On the procedure: To examine cell binding of anti-TREM2 antibodies, recombinant, human TREM2-expressing BW5147.G.1.4 cells (ATCC® TIB48™) were established by stably expressing either mouse TREM2 or human TREM2 together with Dap12 using viral infection. Cells were harvested by scraping, washed in PBS, counted and plated on 96-well U bottom plates at 1)(10⁵ cells/well. The plates were spun at 1,400 rpm for 3 minutes and primary anti-TREM2 or control antibodies were added in FACS buffer (PBS H2% FBS) and incubated on ice for one hour. Cells were subsequently centrifuged as before and washed thrice with FACS buffer. Cells were then incubated with anti-human PE conjugated secondary antibody (BD Biosciences) in FACS buffer for 30 minutes on ice. Cells were again washed thrice with FACS buffer and analyzed on a BD FACS Canto. Binding was measured as mean fluorescence intensity in the APC channel.
For orientation: Flow cytometry measures light scatter and fluorescence of single cells or particles in a stream.

For test [3], the target named is human TREM2/DAP12 fusion protein (human, UniProt O43914 41-113, limits assumed). The test is described as follows: cell-based or functional assay.
Chain of human TREM2/DAP12 fusion protein (O43914 other isoform, or with tags, fused parts or gaps limits assumed): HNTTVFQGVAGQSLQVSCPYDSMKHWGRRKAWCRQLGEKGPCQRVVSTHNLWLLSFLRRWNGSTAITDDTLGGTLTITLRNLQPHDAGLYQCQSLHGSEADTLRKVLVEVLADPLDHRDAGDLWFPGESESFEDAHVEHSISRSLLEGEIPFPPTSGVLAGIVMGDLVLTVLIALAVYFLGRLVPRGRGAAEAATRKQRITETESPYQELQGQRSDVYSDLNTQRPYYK

B1: AL2p-h47 (antibody, human IgG1, V domains shown)
VH: QVQLVQSGAEVKKPGASVKVSCKASGYAFSSSWMNWVRQAPGQGLEWMGRIYPGDGDTNYNGEFRVRVTMTRDTSTSTVYMELSSLRSEDTAVYYCARLLRNQPGESYAMDYWGQGTLVTVSS
VL: DVVMTQTPLSLSVTPGQPASISCRSSQSLVHSNGYTYLHWYLQKPGQSPQLLIYKVSNRFSGVPDRFSGSGSGTDFTLKISRVEAEDVGVYYCSQSTRVPYTFGQGTKLEIK
notes: humanized, human IgG1; Fab and IgG formats under one id
On to B1, for which the dissociation constant (Kd) (in general, the equilibrium constant for the complex coming apart) in test [1] stood at 161 nM. Besides, the “cell binding (FOB)” value in test [2] is 93 FOB. Further, the “Soluble luciferase activation at 10 µg/ml Fold over control” value in test [3] worked out at 9.28 fold over control.

B2: AL2p-h27 (antibody, human IgG1, V domains shown)
VH: QVQLVQSGAEVKKPGASVKVSCKASGYAFSSSWMNWVRQAPGQGLEWIGRIYPGDGDTNYNGEFRVRATLTADTSTSTAYMELSSLRSEDTAVYFCARLLRNQPGESYAMDYWGQGTLVTVSS
VL: DVVMTQTPLSLSVTPGQPASISCRSSQSLVHSNGYTYLHWYLQKPGQSPQLLIYKVSNRFSGVPDRFSGSGSGTDFTLKISRVEAEDLGVYFCSQSTRVPYTFGQGTKLEIK
notes: as for B1
Take B2: binding in test [1] was characterised by a dissociation constant (Kd) of 120 nM. For the same molecule, the “cell binding (FOB)” value in test [2] amounted to 78 FOB. In test [3], the “Soluble luciferase activation at 10 µg/ml Fold over control” value was found to be 7.23 fold over control.

B3: AL2p-h24 (antibody, human IgG1, V domains shown)
VH: QVQLVQSGAEVVKPGASLKISCKASGYAFSSSWMNWVRQAPGQGLEWIGRIYPGDGDTNYNQKFQGRATLTADTSTSTAYMELSSLRSEDTAVYFCARLLRNQPGESYAMDYWGQGALVTVSS
VL: DVVMTQTPLSLSVTPGQPASISCRSSQSLVHSNGYTYLHWYLQKPGQSPQLLIYKVSNRFSGVPDRFSGSGSGTDFTLKISRVEAEDLGVYFCSQSTRVPYTFGQGTKLEIK
notes: as for B1
On to B3, for which the Kd in test [1] worked out at 1150 nM. The “cell binding (FOB)” value in test [2] is 69 FOB. The “Soluble luciferase activation at 10 µg/ml Fold over control” value in test [3] was determined as 4.36 fold over control.

B4: AL2p-h43 (antibody, human IgG1, V domains shown)
VH: QVQLVQSGAEVKKPGASLKVSCKASGYAFSSSWMNWVRQAPGQRLEWIGRIYPGDGDTNYNGEFRVRATLTADTSASTAYMELSSLRSEDTAVYFCARLLRNQPGESYAMDYWGQGTLVTVSS
VL: DVVMTQTPLSLSVTPGQPASISCRSSQSLVHSNGYTYLHWYLQKPGQSPQLLIYKVSNRFSGVPDRFSGSGSGTDFTLKISRVEAEDVGVYYCSQSTRVPYTFGQGTKLEIK
notes: as for B1
B4 registered a Kd in test [1] of 134 nM. Besides, the “cell binding (FOB)” value in test [2] amounted to 91 FOB. In test [3], the “Soluble luciferase activation at 10 µg/ml Fold over control” value is 8.65 fold over control.

B5: AL2p-h25 (antibody, human IgG1, V domains shown)
VH: QVQLVQSGAEVKKPGASLKISCKASGYAFSSSWMNWVRQAPGQGLEWIGRIYPGDGDTNYNGEFRVRATLTADTSTSTAYMELSSLRSEDTAVYYCARLLRNQPGESYAMDYWGQGALVTVSS
VL: DVVMTQTPLSLSVTPGQPASISCRSSQSLVHSNGYTYLHWYLQKPGQSPQLLIYKVSNRFSGVPDRFSGSGSGTDFTLKISRVEAEDLGVYFCSQSTRVPYTFGQGTKLEIK
notes: as for B1
In test [1], B5 yielded a Kd of 153 nM. Moreover, in test [2], the “cell binding (FOB)” value was determined as 90 FOB. Moreover, the “Soluble luciferase activation at 10 µg/ml Fold over control” value in test [3] turned out to be 7.45 fold over control.

B6: AL2p-h32 (antibody, human IgG1, V domains shown)
VH: QVQLVQSGAEVKKPGSSVKVSCKASGYAFSSSWMNWVRQAPGQGLEWIGRIYPGDGDTNYNGEFRVRATLTADTSTTTAYMELSSLRSEDTAVYFCARLLRNQPGESYAMDYWGQGTLVTVSS
VL: DVVMTQTPLSLSVTPGQPASISCRSSQSLVHSNGYTYLHWYLQKPGQSPQLLIYKVSNRFSGVPDRFSGSGSGTDFTLKISRVEAEDLGVYFCSQSTRVPYTFGQGTKLEIK
notes: as for B1
The molecule B6 yielded a Kd in test [1] of 144 nM. In addition, the “cell binding (FOB)” value in test [2] is 81 FOB. Besides, in test [3], the “Soluble luciferase activation at 10 µg/ml Fold over control” value is 5.6 fold over control.

B7: AL2p-h59 (antibody, human IgG1, V domains shown)
VH: QVQLVQSGAEVKKPGASVKVSCKASGYAFSSSWMNWVRQAPGQRLEWMGRIYPGDGDTNYAQKFQGRVTITRDTSASTAYMELSSLRSEDTAVYYCARLLRNQPGESYAMDYWGQGTLVTVSS
VL: DIVMTQSPLSLPVTPGEPASISCRSSQSLVHSNGYTYLHWYLQKPGQSPQLLIYKVSNRFSGVPDRFSGSGSGTDFTLKISRVEAEDVGVYYCSQSTRVPYTFGGGTKVEIK
notes: as for B1
For the molecule B7, in test [1], the dissociation constant Kd came to 130 nM. Further, in test [2], the “cell binding (FOB)” value amounted to 69 FOB. The “Soluble luciferase activation at 10 µg/ml Fold over control” value in test [3] was 7.06 fold over control.

B8: AL2p-h76 (antibody, human IgG1, V domains shown)
VH: QVQLVQSGAEVKKPGASVKVSCKASGYAFSSSWMNWVRQAPGQRLEWIGRIYPGDGDTNYAQKFQGRATITADTSASTAYMELSSLRSEDTAVYFCARLLRNQPGESYAMDYWGQGTLVTVSS
VL: DVVMTQSPDSLAVSLGERATINCRSSQSLVHSNGYTYLHWYQQKPGQSPKLLIYKVSNRFSGVPDRFSGSGSGTDFTLTISSLQAEDVAVYYCSQSTRVPYTFGGGTKVEIK
notes: as for B1
In turn, B8 displayed a Kd in test [1] of 83 nM. In addition, the “cell binding (FOB)” value in test [2] stood at 86 FOB. In test [3], the “Soluble luciferase activation at 10 µg/ml Fold over control” value stood at 6.57 fold over control.

B9: AL2p-h90 (antibody, human IgG1, V domains shown)
VH: QVQLVQSGAEVKKPGASVKVSCKASGYAFSSSWMNWVRQAPGQRLEWIGRIYPGDGDTNYAQKFQGRVTITADTSASTAYMELSSLRSEDTAVYYCARLLRNQPGESYAMDYWGQGTLVTVSS
VL: DVQMTQSPSSLSASVGDRVTITCRSSQSLVHSNGYTYLHWYQQKPGKSPKLLIYKVSNRFSGVPSRFSGSGSGTDFTLTISSLQPEDFATYYCSQSTRVPYTFGGGTKVEIK
notes: as for B1
Molecule B9 gave a Kd in test [1] of 61.2 nM. Moreover, in test [2], the “cell binding (FOB)” value was found to be 126 FOB. Further, in test [3], the “Soluble luciferase activation at 10 µg/ml Fold over control” value turned out to be 4.35 fold over control.
